The Human Domainome abundance scans (Beltran et al. 2025)
± gives the uncertainty stated by the source.

B1: POU domain, class 5, transcription factor 1, residues 134 to 212; numbered along this chain, Q01860 (parent)
chain: EESQDIKALQKELEQFAKLLKQKRITLGYTQADVGLTLGVLFGKVFSQTTICRFEALQLSFKNMCKLRPLLQKWVEEAD

Variants of: B1
Assay: abundance fitness (aPCA) (normalised: wild type 0, dead -1); higher = more abundant; growth selection in yeast, the domain comes from the species named
Conditions: Homo sapiens

Variant	abundance fitness
EESQDIKALQKVLEQFAKLLKQKRITLGYTQADVGLTLGVLFGKVFSQTTICRFEALQLSFKNMCKLRPLLQKWVEEAD	-0.065 ± 0.097
EESQDIKALQKWLEQFAKLLKQKRITLGYTQADVGLTLGVLFGKVFSQTTICRFEALQLSFKNMCKLRPLLQKWVEEAD	-0.226 ± 0.1
EESQDIKALQKYLEQFAKLLKQKRITLGYTQADVGLTLGVLFGKVFSQTTICRFEALQLSFKNMCKLRPLLQKWVEEAD	-0.4 ± 0.31
EESQDIKALQKEAEQFAKLLKQKRITLGYTQADVGLTLGVLFGKVFSQTTICRFEALQLSFKNMCKLRPLLQKWVEEAD	-0.526 ± 0.22
EESQDIKALQKECEQFAKLLKQKRITLGYTQADVGLTLGVLFGKVFSQTTICRFEALQLSFKNMCKLRPLLQKWVEEAD	-0.806 ± 0.31
EESQDIKALQKEEEQFAKLLKQKRITLGYTQADVGLTLGVLFGKVFSQTTICRFEALQLSFKNMCKLRPLLQKWVEEAD	-0.484 ± 0.39
EESQDIKALQKEFEQFAKLLKQKRITLGYTQADVGLTLGVLFGKVFSQTTICRFEALQLSFKNMCKLRPLLQKWVEEAD	-0.149 ± 0.14
EESQDIKALQKEGEQFAKLLKQKRITLGYTQADVGLTLGVLFGKVFSQTTICRFEALQLSFKNMCKLRPLLQKWVEEAD	-0.708 ± 0.23
EESQDIKALQKEHEQFAKLLKQKRITLGYTQADVGLTLGVLFGKVFSQTTICRFEALQLSFKNMCKLRPLLQKWVEEAD	-0.176 ± 0.19
EESQDIKALQKEIEQFAKLLKQKRITLGYTQADVGLTLGVLFGKVFSQTTICRFEALQLSFKNMCKLRPLLQKWVEEAD	0.099 ± 0.27
EESQDIKALQKEMEQFAKLLKQKRITLGYTQADVGLTLGVLFGKVFSQTTICRFEALQLSFKNMCKLRPLLQKWVEEAD	0.021 ± 0.17
EESQDIKALQKENEQFAKLLKQKRITLGYTQADVGLTLGVLFGKVFSQTTICRFEALQLSFKNMCKLRPLLQKWVEEAD	-0.252 ± 0.19
EESQDIKALQKEPEQFAKLLKQKRITLGYTQADVGLTLGVLFGKVFSQTTICRFEALQLSFKNMCKLRPLLQKWVEEAD	-0.306 ± 0.45
EESQDIKALQKEQEQFAKLLKQKRITLGYTQADVGLTLGVLFGKVFSQTTICRFEALQLSFKNMCKLRPLLQKWVEEAD	-0.641 ± 0.34
EESQDIKALQKEREQFAKLLKQKRITLGYTQADVGLTLGVLFGKVFSQTTICRFEALQLSFKNMCKLRPLLQKWVEEAD	-1.06 ± 0.35
EESQDIKALQKESEQFAKLLKQKRITLGYTQADVGLTLGVLFGKVFSQTTICRFEALQLSFKNMCKLRPLLQKWVEEAD	-0.743 ± 0.25
EESQDIKALQKEVEQFAKLLKQKRITLGYTQADVGLTLGVLFGKVFSQTTICRFEALQLSFKNMCKLRPLLQKWVEEAD	-0.228 ± 0.14
EESQDIKALQKEWEQFAKLLKQKRITLGYTQADVGLTLGVLFGKVFSQTTICRFEALQLSFKNMCKLRPLLQKWVEEAD	-0.58 ± 0.19

Variant	abundance fitness
EESQDIKALQKEYEQFAKLLKQKRITLGYTQADVGLTLGVLFGKVFSQTTICRFEALQLSFKNMCKLRPLLQKWVEEAD	-0.527 ± 0.24
EESQDIKALQKELAQFAKLLKQKRITLGYTQADVGLTLGVLFGKVFSQTTICRFEALQLSFKNMCKLRPLLQKWVEEAD	0.143 ± 0.085
EESQDIKALQKELCQFAKLLKQKRITLGYTQADVGLTLGVLFGKVFSQTTICRFEALQLSFKNMCKLRPLLQKWVEEAD	-0.476 ± 0.24
EESQDIKALQKELDQFAKLLKQKRITLGYTQADVGLTLGVLFGKVFSQTTICRFEALQLSFKNMCKLRPLLQKWVEEAD	-0.533 ± 0.39
EESQDIKALQKELFQFAKLLKQKRITLGYTQADVGLTLGVLFGKVFSQTTICRFEALQLSFKNMCKLRPLLQKWVEEAD	-0.056 ± 0.14
EESQDIKALQKELGQFAKLLKQKRITLGYTQADVGLTLGVLFGKVFSQTTICRFEALQLSFKNMCKLRPLLQKWVEEAD	-0.033 ± 0.13
EESQDIKALQKELHQFAKLLKQKRITLGYTQADVGLTLGVLFGKVFSQTTICRFEALQLSFKNMCKLRPLLQKWVEEAD	-0.037 ± 0.16
EESQDIKALQKELIQFAKLLKQKRITLGYTQADVGLTLGVLFGKVFSQTTICRFEALQLSFKNMCKLRPLLQKWVEEAD	0.14 ± 0.15
EESQDIKALQKELKQFAKLLKQKRITLGYTQADVGLTLGVLFGKVFSQTTICRFEALQLSFKNMCKLRPLLQKWVEEAD	0.267 ± 0.14
EESQDIKALQKELLQFAKLLKQKRITLGYTQADVGLTLGVLFGKVFSQTTICRFEALQLSFKNMCKLRPLLQKWVEEAD	-0.168 ± 0.11
EESQDIKALQKELMQFAKLLKQKRITLGYTQADVGLTLGVLFGKVFSQTTICRFEALQLSFKNMCKLRPLLQKWVEEAD	-0.307 ± 0.22
EESQDIKALQKELPQFAKLLKQKRITLGYTQADVGLTLGVLFGKVFSQTTICRFEALQLSFKNMCKLRPLLQKWVEEAD	-0.613 ± 0.29
EESQDIKALQKELQQFAKLLKQKRITLGYTQADVGLTLGVLFGKVFSQTTICRFEALQLSFKNMCKLRPLLQKWVEEAD	-0.05 ± 0.14
EESQDIKALQKELRQFAKLLKQKRITLGYTQADVGLTLGVLFGKVFSQTTICRFEALQLSFKNMCKLRPLLQKWVEEAD	0.063 ± 0.081
EESQDIKALQKELSQFAKLLKQKRITLGYTQADVGLTLGVLFGKVFSQTTICRFEALQLSFKNMCKLRPLLQKWVEEAD	-0.358 ± 0.13
EESQDIKALQKELTQFAKLLKQKRITLGYTQADVGLTLGVLFGKVFSQTTICRFEALQLSFKNMCKLRPLLQKWVEEAD	-0.352 ± 0.16
EESQDIKALQKELWQFAKLLKQKRITLGYTQADVGLTLGVLFGKVFSQTTICRFEALQLSFKNMCKLRPLLQKWVEEAD	-0.367 ± 0.15
